T1: hCCR3 (Homo sapiens, UniProt P51677)
T1 construct: expressed in transfected cells
T1 sequence (P51677 1-355): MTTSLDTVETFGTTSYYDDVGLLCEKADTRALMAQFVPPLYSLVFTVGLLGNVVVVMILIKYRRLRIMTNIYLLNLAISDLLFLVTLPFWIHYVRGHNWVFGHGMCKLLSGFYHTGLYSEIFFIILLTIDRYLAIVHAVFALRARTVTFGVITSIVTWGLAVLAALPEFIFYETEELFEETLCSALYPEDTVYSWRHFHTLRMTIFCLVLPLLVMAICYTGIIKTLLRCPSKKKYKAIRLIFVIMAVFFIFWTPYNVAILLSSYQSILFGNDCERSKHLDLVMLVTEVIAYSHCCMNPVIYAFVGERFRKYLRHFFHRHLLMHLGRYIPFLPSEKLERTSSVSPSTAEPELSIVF

T2: hCCR7 (Homo sapiens, UniProt P32248)
T2 construct: expressed in transfected cells
T2 sequence (P32248 25-378): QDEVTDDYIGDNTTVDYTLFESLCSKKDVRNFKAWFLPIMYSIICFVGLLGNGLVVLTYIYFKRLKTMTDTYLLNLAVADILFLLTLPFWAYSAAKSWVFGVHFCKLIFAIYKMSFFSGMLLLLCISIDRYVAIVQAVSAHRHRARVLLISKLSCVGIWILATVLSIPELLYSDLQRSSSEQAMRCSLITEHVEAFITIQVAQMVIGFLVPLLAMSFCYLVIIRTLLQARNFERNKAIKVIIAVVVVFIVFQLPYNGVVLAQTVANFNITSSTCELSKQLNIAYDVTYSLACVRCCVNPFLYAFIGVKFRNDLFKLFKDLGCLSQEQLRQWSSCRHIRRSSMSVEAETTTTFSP

B1: V62.1-R108H-m47-m38: matured anti-CXCR4 antibody; LCVR SEQ ID NO 14, HCVR SEQ ID NO 18 (antibody, V domains shown)
VH: EVQLLESGGGLVQPGGSLRLSCAASGFTFSSYAMSWVRQAPGKGLEWVSAISGSGGTRYADSVKGRFTISRDNSKNTLYLQMNSLRAEDTAVYYCARQGKTRVYGYHWHGYGSTHALDYWGQGTLVTVSS
VL: EIVLTQSPGTLSLSPGERATLSCRASQSVSSSYLAWYQQKPGQAPRLLIYGASSRATGIPDRFSGSGSGTDFTLTISRLEPEDFAVYYCQQWSSDSVTFGQGTKVEIKRT
modifications: heavy chain variable region HCVR, variant 4; light chain variable region LCVR, variant 2
B2: V62.1-R108H-m80: matured anti-CXCR4 antibody; LCVR SEQ ID NO 13, HCVR SEQ ID NO 19 (antibody, V domains shown)
VH: EVQLLESGGGLVQPGGSLRLSCAASGFTISPYSITWVRQAPGKGLEWVSQINSYNGKTYYADSVKGRFTISRDNSKNTLYLQMNSLRAEDTAVYYCARQGKTRVYGYHWHGYGSTHALDYWGQGTLVTVSS
VL: EIVLTQSPGTLSLSPGERATLSCRASQSVSSSYLAWYQQKPGQAPRLLIYGASSRATGIPDRFSGSGSGTDFTLTISRLEPEDFAVYYCQQSDYSYPFTFGQGTKVEIKRT
modifications: heavy chain variable region HCVR, variant 5; light chain variable region LCVR, variant 1
B3: V62.1-R108H-m43-m38: matured anti-CXCR4 antibody; LCVR SEQ ID NO 14, HCVR SEQ ID NO 17 (antibody, V domains shown)
VH: EVQLLESGGGLVQPGGSLRLSCAASGFTFSSYAMSWVRQAPGKGLEWVSAISGSGGGSTRYADSVKGRFTISRDNSKNTLYLQMNSLRAEDTAVYYCARQGKTRVYGYHWHGYGSTHALDYWGQGTLVTVSS
VL: B1 VL
modifications: heavy chain variable region HCVR, variant 3; light chain variable region LCVR, variant 2

Experiments:
RA1 cells = assay: Antibody-dependent cell-mediated cytotoxicity (ADCC), LDH release (Example 10); assay type: cell-based, human; conditions: E:T ratio 20:1
Method: ADCC was measured with RA1 cells as the target cells (T) and using the CytoTox 96® Non-Radioactive Cytotoxicity Assay (Promega Corp., Fitchburg, Wis.)), which assay measures lactate dehydrogenase (LDH) release. A round-bottom 96-well culture plate was set up with the following control and experimental wells (100 microliter final volumes):
a. RA1 cells (for target cell spontaneous LDH release control) b. RA1 cells (for target cell maximum LDH release control) c. Culture medium (RPMI 1640 Medium (1X) without phenol red) used for volume correction control d. Culture medium (for culture medium background control) e. RA1 plus effector cells (E) (for target plus effector cell spontaneous LDH release control) f. Experimental wells with effector and target cells (10^5) with serial dilutions of each test IgG or without test IgG.
The plates were centrifuged at 1600 rpm for 2 minutes and incubated at 37° C. for 4 hours. One hour prior to supernatant harvest, 20 microliters of Lysis Solution (10×) were added to the conditions b) and c). The plates were centrifuged at 1600 rpm for 2 minutes, and 50 microliters of the supernatant from each well of the assay plates were transferred to corresponding wells of a flat-bottom 96-well enzymatic assay plate. Substrate Mix (50 microliters) was added to each well of the latter plate, and the plate (protected from light) was incubated for 30 minutes at room temperature. Finally, 50 microliters of Stop Solution were added to each well, and absorbance (OD values) was measured at 490 nm. Each condition was tested in triplicates.
Preliminary experiments had been conducted in order to determine the optimal E:T ratio. The data shown below were obtained at a 20:1 E:T ratio with 10^5 RA1 target cells. The effector cells used in this study were prepared as follows: human peripheral blood mononuclear cells (PBMCs) obtained from a healthy donor were isolated by means of density gradient centrifugation using Lymphocyte Separation Medium (ref. J15-004, Invitrogen Corp., Carlsbad, Calif.). PBMCs at 2×10^6 per mL were cultured for two days in RPMI 1640 with 10% FCS, penicillin/streptomycin and 100 units per mL of human recombinant IL-2 (obtained from Roussel-Uclaf) in a 37° C. humidified incubator (5% CO2).
ADCC percentages obtained at different concentrations of test IgGs were calculated with the formula % ADCC=(f−e)/(b−a)×100, i.e., % ADCC=(OD of Target+Effector cells +/−Test Mab −OD of Spontaneous Release of Target+Effector cells)/(OD Maximal Release Target cells −OD Spontaneous Release of Target cells)×100.

hCCR3 = target: T1, hCCR3; assay: Specificity for CXCR4, flow cytometry on GPCR over-expressing cells (Example 6); assay type: binding; conditions: cell line hCCR3; test IgG at 100 nM
Method: (§1) Cells over-expressing different GPCRs other than CXCR4 and several lines transfected to over-express CXCR4 (R1610-hCXCR4, Cf2Th-hCXCR4 and CHO-hCXCR4) were compared. Cultures were incubated with a test IgG at 100 nM in FACS buffer for 40 min at 4° C. Thereafter, cells were washed twice, stained with anti-human-Fc antibody-PE conjugate (Jackson Immunoresearch Laboratories Inc., West Grove, Pa.), washed twice in FACS buffer and then transferred to FIX buffer. Fluorescence intensities were measured by GUAVA PCA-96 at 425V (in triplicate).
(§2) The expression of GPCRs other than CXCR4 was confirmed using commercially available antibodies (positive controls). For example, a commercial anti-CXCR1 antibody was used as a positive control for confirming the expression of CXCR1 on the CXCR1-transfected CHO cells.

hCCR7 = target: T2, hCCR7; assay: as above; assay type: binding; conditions: cell line hCCR7; test IgG at 100 nM
Method: as §1, §2

Molecule | ADCC percentage (RA1 cells; 0.0001 μg/mL) | ADCC percentage (RA1 cells; 0.001 μg/mL) | ADCC percentage (RA1 cells; 0.01 μg/mL) | ADCC percentage (RA1 cells; 0.1 μg/mL) | ADCC percentage (RA1 cells; 1 μg/mL) | MFI (hCCR3) | MFI (hCCR7)
B1 | 14% | 36% | 50% | 51% | 55% | 40 | –
B2 | 9% | 16% | 45% | 59% | 55% | – | 25
B3 | 8% | 19% | 40% | 42% | 54% | – | –

Source: patent US20190389958A1, “ANTI-CXCR4 ANTIBODIES” (MSM Protein Technologies, Inc., priority 2017, published 2019)
